Legend:
[1] = molecular target: the molecule itself; assay: cross-linking; DSS cross-linking of gB-overexpressing cells, western blotting of the natural form of gB^23–431
[2] = molecular target: T1, GST-NRP1^ABC (soluble extracellular ABC domain of NRP1) (human, UniProt O14786-1 30-862); assay: ELISA; plates coated with 200 ng purified FLAG-gB^23–431, various concentrations of GST-NRP1 or GST-NRP2 for 2 h at RT, rabbit anti-GST and HRP-conjugated secondary antibody; apparent affinity constant; conditions: both partners purified
T1 construct: neuropilin 1 residues 30-862 (extracellular ABC domain), amplified from pMSCV-NRP1, in pGEX-6p-1; also called pGEX-NRP1^ABC; pGEX-GST-NRP1^ABC; source: E. coli Rosetta, purified (Glutathione agarose)
T1 sequence: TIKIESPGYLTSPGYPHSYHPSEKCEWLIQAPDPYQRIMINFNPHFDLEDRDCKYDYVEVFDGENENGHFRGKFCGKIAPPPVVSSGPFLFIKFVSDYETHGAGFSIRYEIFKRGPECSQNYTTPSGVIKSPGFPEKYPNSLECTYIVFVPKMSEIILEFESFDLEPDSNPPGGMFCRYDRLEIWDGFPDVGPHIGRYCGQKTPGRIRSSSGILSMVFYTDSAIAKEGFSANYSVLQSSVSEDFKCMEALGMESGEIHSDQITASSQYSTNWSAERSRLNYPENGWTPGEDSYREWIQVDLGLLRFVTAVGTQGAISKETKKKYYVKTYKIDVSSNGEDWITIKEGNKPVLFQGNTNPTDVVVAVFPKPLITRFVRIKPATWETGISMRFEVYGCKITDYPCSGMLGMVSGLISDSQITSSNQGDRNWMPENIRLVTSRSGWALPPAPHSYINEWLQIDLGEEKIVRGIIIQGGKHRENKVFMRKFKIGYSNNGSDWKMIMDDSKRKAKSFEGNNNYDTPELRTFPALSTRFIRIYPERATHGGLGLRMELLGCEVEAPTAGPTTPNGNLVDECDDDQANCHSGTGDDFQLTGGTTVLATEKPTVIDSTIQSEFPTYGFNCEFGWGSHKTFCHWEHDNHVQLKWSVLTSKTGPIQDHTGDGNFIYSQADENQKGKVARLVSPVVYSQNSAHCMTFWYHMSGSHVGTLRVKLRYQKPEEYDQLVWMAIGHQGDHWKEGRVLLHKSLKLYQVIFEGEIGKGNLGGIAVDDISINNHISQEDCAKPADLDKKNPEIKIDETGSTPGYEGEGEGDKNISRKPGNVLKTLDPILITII

B1: FLAG-gB^23–431 (EBV glycoprotein B residues 23-431, CendR motif exposed) (domain or fragment)
chain: QTPEQPAPPATTVQPTATRQQTSFPFRVCELSSHGDLFRFSSDIQCPSFGTRENHTEGLLMVFKDNIIPYSFKVRSYTKIVTNILIYNGWYADSVTNRHEEKFSVDSYETDQMDTIYQCYNAVKMTKDGLTRVYVDRDGVNITVNLKPTGGLANGVRRYASQTELYDAPGWLIWTYRTRTTVNCLITDMMAKSNSPFDFFVTTTGQTVEMSPFYDGKNKETFHERADSFHVRTNYKIVDYDNRGTNPQGERRAFLDKGTYTLSWKLENRTAYCPLQHWQTFDSTIATETGKSIHFVTDEGTSSFVTNTTVGIELPDAFKCIEEQVNKTMHEKYEAVQDRYTKGQEAITYFITSGGLLLAWLPLTPRSLATVKNLTELTTPTSSPPSSPSPPAPSAARGSTPAAVLRRRR
notes: Epstein-Barr virus glycoprotein B (gB), residues 23-431, amplified from the gB expression plasmid p2670; ends with the CendR motif 428-431 (furin cleavage site); Secreted into the supernatant; the signal peptide of the vector is not described; also called EBV-gB^23–431; pCEP-his-FLAG-gB^23–431; source: HEK-293FT, transfected, in lysate (co-IP; M2 beads for the pull-down)
stoichiometry N [1]: 3 | binding result [2]: binds

Reference: PMC4339892, “Neuropilin 1 is an entry factor that promotes EBV infection of nasopharyngeal epithelial cells” (Nature Communications, 2015)
